What was measured:
Type in all cases: binding
[1] = system: human Nectin-4; experiment: Flow cytometry of MDA-MB231 transfected with Flag-tagged Nectin-4; conditions: MDA-MB231 transfected with Nectin-4, 0.3 ng/ml-5 μg/mL
Protocol: Detection by flow cytometry. • Flow cytometry analysis of MDA-MB231 transfected with the N-terminal Flag-tagged epitope of Nectin-4 using a dose range (0.3 ng/ml-5 μg/mL) of Ch-15A7.5 or Ch-5A12.2 antibodies Parental MDA-MB231 cells are included as controls. Cells were then stained with phycoerythrin conjugate goat anti human Fc antibody. The normalized mean fluorescence intensity is shown. Inlay: staining of parental MDA-MB231 cells with anti Nectin-1, -2 and -3 mAbs ([…]). Mean fluorescence intensity is represented.
Human breast carcinoma cell line MDA-MB231 (ATCC, Manassas, VA) was cultured in DMEM supplemented with 10% fetal bovine serum, 50 IU/mL penicillin, 50 μg/mL streptomycin and 2 mM glutamine. The cells were transfected with expression vector p3XFLR4.C1 containing a PVRL4 cDNA. Human triple negative breast cancer cell line SUM190PT (BioIVT, Westbury, NY) was cultures in Ham's F12 medium with 5% fetal bovine serum, 1% non-essential amino acids, 1% Hepes, 1% insulin, 1 μg/mL hydrocortisone, 6.8 ng/ml Triiodo L-tyrosine, 100 IU/mL penicillin, 100 μg/mL streptomycin and 2 mM glutamine. Chinese hamster ovary CHO cell line was cultured in DMEM supplemented with 10% fetal bovine serum, 100 IU/mL penicillin, 100 μg/mL streptomycin and 2 mM glutamine. […]

[2] = system: human Nectin-4; experiment: ELISA on coated Nectin-4 Fc fusion proteins (Nec4-VCC, Nec4-V); conditions: ELISA
Protocol: (§1) Detection by ELISA. • Ninety-six-wells plates were coated, as indicated, with 5 μg/mL Nectin-1 extracellular domain Fc fusion recombinant protein (Nec1-VCC), or Nectin-4 IgV-like domain Fc fusion recombinant protein (Nec4-V), or Nectin-4 extracellular domain Fc fusion recombinant protein (Nec4-VCC) overnight at 4° ° C.
FIG. 3: Characterization of Ch-15A7.5 epitope. Competition assay was performed by ELISA. • Ninety-six-wells plates were coated with 5 μg/mL of Nectin-4 extracellular domain Fc fusion recombinant protein (Nec4-VCC) overnight at 4° C. Binding of peroxidase-conjugated Ch-15A7.5 mAb (5 μg/mL) was measured in presence of increasing concentrations (2.75 ng/ml-6 μg/mL) of Rituximab, Ch-15A7 mAb, Enfortumab (HA22), Ch-N41 mAb and Ch-14A5 mAb.
(§2) A sandwich enzyme-linked immunosorbent assay was used to control specificity of Ch-15A7.5 antibody and to perform competition assays between different mAbs. Ninety-six-wells plates were coated with 10 nM of Nectin-4-VCC-Fc, Nectin-1-VCC-Fc (entire extracellular part) or Nectin-4-V-Fc (comprising only the IgV domain) overnight at +4° C. After washes and saturation with PBS 1% BSA, cells were incubated for 2 hours at 25° C. with 10 nM of peroxidase-conjugated Ch-15A7.5 mAb. In the case of competition, binding of 0.5 nM of peroxidase conjugated Ch-15A7.5 mAb was measured in the presence of variable concentration (0.018 nM to 40 nM) of “cold” mAb. One hundred μL of peroxidase substrate was added (One Step ABST, Pierce), and OD was red at 405 nm.

[3] = target: T1, Nectin-1 extracellular domain (Homo sapiens, UniProt Q15223); experiment: ELISA on coated Nectin-1 extracellular domain Fc fusion protein (Nec1-VCC)
T1 construct: Nectin-1 extracellular domain Fc fusion recombinant protein (Nec1-VCC)
T1 sequence (Q15223 31-355 limits assumed): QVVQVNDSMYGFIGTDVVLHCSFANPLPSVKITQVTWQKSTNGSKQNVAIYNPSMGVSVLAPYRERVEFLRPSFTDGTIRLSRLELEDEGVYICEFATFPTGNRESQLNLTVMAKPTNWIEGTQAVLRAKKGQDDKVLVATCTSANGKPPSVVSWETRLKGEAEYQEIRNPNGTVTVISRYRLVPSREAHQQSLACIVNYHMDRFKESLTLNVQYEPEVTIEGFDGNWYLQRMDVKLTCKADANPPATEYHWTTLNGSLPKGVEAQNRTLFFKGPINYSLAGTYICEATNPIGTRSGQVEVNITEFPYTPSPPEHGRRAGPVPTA
Protocol: as §1, §2

[4] = target: T2, Nectin-4 expressed by normal differentiated human keratinocytes (NHEK) (Homo sapiens, UniProt Q96NY8); experiment: Flow cytometry on normal differentiated human keratinocytes (NHEK); conditions: dose range 8 PM-33 nM
T2 construct: Cells or cell lines (10,000-50,000) expressing Nectin-4 (naturally or transfected); endogenous in cells; host or cells: NHEK, differentiated with 0.1 mM CaCl2
T2 sequence (Q96NY8 32-510): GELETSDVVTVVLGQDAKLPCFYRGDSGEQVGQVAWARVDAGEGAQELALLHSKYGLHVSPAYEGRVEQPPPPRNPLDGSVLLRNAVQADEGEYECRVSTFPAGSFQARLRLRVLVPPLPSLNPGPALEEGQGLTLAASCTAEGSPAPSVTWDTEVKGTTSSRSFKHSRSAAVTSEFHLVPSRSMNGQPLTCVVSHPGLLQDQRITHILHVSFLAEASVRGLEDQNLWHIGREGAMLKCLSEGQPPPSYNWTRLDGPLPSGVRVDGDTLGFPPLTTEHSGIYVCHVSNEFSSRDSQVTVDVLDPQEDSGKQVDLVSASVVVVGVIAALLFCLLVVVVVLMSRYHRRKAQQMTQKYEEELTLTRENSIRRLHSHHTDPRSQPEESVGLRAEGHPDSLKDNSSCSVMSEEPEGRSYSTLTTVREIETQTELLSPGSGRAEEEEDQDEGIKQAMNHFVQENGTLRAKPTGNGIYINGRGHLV
Protocol: FIG. 15: Differential binding of Ch-15A7.5 and its humanized variants to Nectin-4 expressed by tumor cell line and normal differentiated human keratinocytes. Detection by flow cytometry.
Flow cytometry analysis of TNBC cell line (SUM190, upper panels) and normal differentiated (0.1 mM CaCl2) human keratinocytes (NHEK, lower panels) using a dose range (8 PM-33 nM) of Ch-5A12.2, Ch-15A7.5 and its humanized variants 15A7.5-H1L2, -H1L3, -H2L2, -H2L3, -H3LO, -H3L2, -H3L3. Cells were then stained with phycoerythrin conjugate goat anti human Fc antibody. Normalized mean fluorescence intensities are shown. Non-linear curve fitting (4 parameters) was done with GraphPad Prism 9 software.
Cells or cell lines (10,000-50,000) expressing Nectin-4 (naturally or transfected) were incubated with dose range of the indicated antibodies. After washing, cells were then stained with phycoerythrin-conjugated goat anti human antibody (5 μg/mL) Jackson Immuno Research). After fixation, cells were stained with a viability dye (e780, Invitrogen) before flow cytometry acquisition.

recognition of Nectin-1 extracellular domain [3]: not the Nectin-1 extracellular domain
apparent EC50 towards keratinocytes in comparison to that of Ch-5A12.2 [4]: much lower apparent EC50
B1: Ch-15A7.5: chimeric antibody of 15A7.5 with Fc-silent human Fc (antibody, V domains shown)
VH: EVKLVESGGGLVQPGGSRKLSCAASGFTFSNYGMAWVRQAPGKGPEWVAFISNLAYGINYADTVTGRFTISRENAKNTLYLEMRSLRSEDTAMYYCARGARATGWFAYWGQGTLVTVSA
VL: DIVMTQSQKFMSTSIGDRVSVTCKASQNVDTHVAWYQEKPGQSPKALIYSASYRYSGVPDRFTGSGSGTDFTLTISNVQSEDLADYFCQQYNSYPLTFGGGTKLEIK
recognition of human Nectin-4 [1]: recognize human Nectin-4
recognition of Nectin-4 IgV-like domain ([2]; Nec4-V coated): recognizes IgV-like domain of human Nectin-4
recognition of Nectin-4 extracellular domain ([2]; Nec4-VCC coated): recognizes the Nectin-4 extracellular domain

Reference: patent US20240173424A1, “ANTI-NECTIN-4-ANTIBODY EXATECAN CONJUGATES” (EMERGENCE THERAPEUTICS AG, priority 2021, published 2024)
